pKd: −log10 of the molar value.
Assays:
[1] = molecular target: human activated Factor X (human) (UniProt P00742); test: cell-based or functional assay
[2] = molecular target: human plasma-derived Factor X zymogen (human) (UniProt P00742); test: cell-based or functional assay
[3] = molecular target: human plasma-derived Factor X zymogen (human) (UniProt P00742); test: apparent KD fitted from FXa generation assay

Sequence of human plasma-derived Factor X zymogen (human) (P00742 41-179, chain 1 of 2): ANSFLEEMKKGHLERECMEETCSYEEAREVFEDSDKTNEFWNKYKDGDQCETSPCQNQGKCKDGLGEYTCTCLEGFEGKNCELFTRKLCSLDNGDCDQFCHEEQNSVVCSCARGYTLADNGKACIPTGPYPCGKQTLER
Sequence of human plasma-derived Factor X zymogen (human) (P00742 183-488, chain 2 of 2): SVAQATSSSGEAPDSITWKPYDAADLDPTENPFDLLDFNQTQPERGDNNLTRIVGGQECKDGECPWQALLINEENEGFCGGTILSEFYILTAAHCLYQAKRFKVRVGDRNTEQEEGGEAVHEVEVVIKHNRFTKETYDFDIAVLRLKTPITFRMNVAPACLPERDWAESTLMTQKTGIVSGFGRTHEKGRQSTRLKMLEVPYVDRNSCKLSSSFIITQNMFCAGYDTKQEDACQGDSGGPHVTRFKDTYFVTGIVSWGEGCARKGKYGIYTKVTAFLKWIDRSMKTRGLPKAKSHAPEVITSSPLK
Sequence of human activated Factor X (human) (P00742 41-179, chain 1 of 2): as the sequence (P00742 41-179, chain 1 of 2) above
Sequence of human activated Factor X (human) (P00742 235-488, chain 2 of 2): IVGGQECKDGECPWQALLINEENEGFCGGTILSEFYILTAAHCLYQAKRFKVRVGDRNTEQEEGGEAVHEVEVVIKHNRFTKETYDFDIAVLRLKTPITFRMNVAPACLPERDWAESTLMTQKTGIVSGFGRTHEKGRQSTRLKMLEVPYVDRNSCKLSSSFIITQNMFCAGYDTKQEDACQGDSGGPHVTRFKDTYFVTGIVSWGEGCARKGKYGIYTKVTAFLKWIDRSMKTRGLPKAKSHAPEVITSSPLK

- FXa amidolytic activity (relative to free FXa, fold) [1]: 1.02 fold
- Increase in FX activation (fold) [2]: < 0.6 fold
- pKd [3]: 5.41
Substance: Fab ACE910 anti-FX (J327/L404-k)
